{"source": "patent US20190000885A1", "about": "(GENERAL HOSPITAL, published 2019)", "target": "T1, RNase/ANG inhibitor 1 (RNH1), endogenous protein in sorted mouse LKS cells and myeloid-restricted progenitors (mouse, UniProt Q91VI7 1-456)", "T1 sequence (looked up)": "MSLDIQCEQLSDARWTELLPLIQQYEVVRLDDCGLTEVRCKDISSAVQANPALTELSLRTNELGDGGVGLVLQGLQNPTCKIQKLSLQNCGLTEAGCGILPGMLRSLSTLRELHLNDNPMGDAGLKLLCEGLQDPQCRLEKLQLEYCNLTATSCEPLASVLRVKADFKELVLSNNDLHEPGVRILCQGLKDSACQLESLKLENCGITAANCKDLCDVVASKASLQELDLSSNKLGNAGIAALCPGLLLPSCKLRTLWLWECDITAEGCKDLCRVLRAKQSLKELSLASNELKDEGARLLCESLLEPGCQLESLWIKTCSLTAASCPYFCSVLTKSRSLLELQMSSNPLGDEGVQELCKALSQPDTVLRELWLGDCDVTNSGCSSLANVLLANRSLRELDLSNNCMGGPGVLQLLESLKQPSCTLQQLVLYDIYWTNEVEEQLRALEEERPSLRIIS", "test": "double immunofluorescence and acceptor-photobleaching FRET (AF488 donor, AF555 acceptor) on fixed sorted mouse cells", "protocol": "For ANG/RNH1 localization, cells were stained with an in-house made mouse ANG-specific C527 monoclonal antibody (10 μg/ml) and R127 rabbit pAb of RNH1 (5 μg/ml), followed with AF488-conjugated rabbit anti-mouse (Thermo Scientific A11059, 1:600 dilution) and AF555-conjugated goat anti-rabbit (Thermo Scientific A21428, 1:600 dilution). Appropriate isotype controls were used at the same concentration. Images were acquired using Nikon A1R confocal microscopy.\nFRET was performed using the acceptor photo-bleaching method, as previously described (Pizzo et al., 2013). Briefly, AF488 was used as the donor and AF555 as the acceptors. Signals were photobleached to less than 10% of the initial fluorescent measurement. ROI measurements from LKS cells and myeloid-restricted progenitors were taken from 10 individual cells. FRET efficiency was calculated using the formula […], where ID and IDA are fluorescence intensities before and after photobleaching, respectively. FRET was performed using Leica SP2 confocal microscopy.\nThe exact subcellular compartment where tiRNA is produced by ANG is currently unknown, but it has been shown that tiRNA production is correlated to SG localization of ANG in stressed cells (Pizzo et al., 2013). […]", "data": [{"binder": "Angiogenin (ANG), endogenous mouse protein in sorted LKS cells and myeloid-restricted progenitors (enzyme, UniProt P21570 25-145, looked up, Endogenous intracellular protein, not the recombinant ANG preparation; also called ribonuclease 5; RNase5) QDDSRYTKFLTQHHDAKPKGRDDRYCERMMKRRSLTSPCKDVNTFIHGNKSNIKAICGANGSPYRENLRMSKSPFQVTTCKHTGGSPRPPCQYRASAGFRHVVIACENGLPVHFDESFFSL", "values": [{"measurement": "binding result", "result": "binds"}]}]}
